The target in this experiment is I-A^b (MHCII) of murine bone marrow-derived dendritic cells from C57BL/6J mice (mouse) (UniProt P14434). The experiment can be described thus: MHCII peptidomics: Y3P IP of peptide-MHCII from BMDCs exposed to live Listeria, iTRAQ LC-MS/MS. The settings on record: scale: log2 fold change, Listeria 6 hr versus 10 min.

Substance “Listeria peptide mNRVmLPLQQmGAKMHGK (lmo1923 (aroE))” came in with a logFC of 0.145.

(Values after patent US20220293215A1.)
